Patent publication US20250215092A1 (ZHEJIANG NANOMAB TECHNOLOGY CENTER, published 2025)

Columns and labels:
[1] = molecular target: T1, human EGFR.His antigen (Acro, Cat #EGR-H522a) (human, UniProt P00533 25-645); assay: SPR, antibody captured on protein A, EGFR.His in flow
T1 construct: extracellular domain; Bought protein; also called EGFR his tag protein; full-length EGFR extracellular domain protein; not shown: His tag
Procedure: The binding kinetics and affinity of candidate antibody to human EGFR.His antigen were determined using surface plasmon resonance (SPR). The purified antibody was flowed through the sensor chips pre-immobilized with protein A, and the antibody was captured by protein A. Then five different concentrations of EGFR.His protein were used as the mobile phase, and the binding time and dissociation time were […], respectively. The binding rate (kon), dissociation rate (koff), and equilibrium constant (kD) were analyzed using Biacore Evaluation Software 2.0 (GE). EC225, an antibody that binds to region III of human EGFR, was selected as a positive control (sequence source https.//go.drugbank.com/drugs/DB00002).

[2] = molecular target: T2, Region III of EGFR expressed on HEK293T cells (human, UniProt P00533); assay: flow cytometry on HEK293T cells expressing EGFR region III, anti-human IgG PE, MFI, curve fit; unit from the concentration axis and paragraph 62 [table]
T2 construct: also called HEK293T EGFR-III cells; stably transformed cell line 293T overexpressing EGFR III region protein
Procedure: HEK293T cells that express Region III of EGFR (i.e., HEK293T […] cells) were plated in a 96-well plate with 3×10⁵ cells/well, and then HEK293T […] cells were incubated with gradient diluted VHH-IgG4 antibody. After incubation for half an hour, anti-human IgG PE (Jackson Immuno Research, Code: 109-117-008, Lot:145501) as the secondary antibody for detection was added for incubation, and then CytoFLEX flow cytometer was used for detection. The EC50 of the antibody was calculated by curve fitting with Graphprism8.0 software. Isotype 1 in the figure is a negative control, and its amino acid sequence is shown as SEQ ID NO: 2 in CN106046152A.

[3] = molecular target: T3, EGFR on SKOV3 and Aspc-1 tumor cells (human, UniProt P00533); assay: flow cytometry on SKOV3 tumor cells, anti-human IgG PE, MFI, curve fit; unit from the concentration axis and paragraph 62 [table]
T3 construct: endogenous, on the cell surface; the cell line is named under assay; also called tumor cell EGFR
Procedure: Two kinds of tumor cells, SKOV3 and Aspc-1, expressing EGFR were respectively plated in 96 well plates, with 3×10⁵ cells per well, and then the tumor cells were incubated with gradient diluted VHH-IgG4 antibody. After incubation on ice for half an hour, anti human IgG PE (Jackson Immuno Research, Code: 109-117-008, Lot:145501) was added for incubation, and then CytoFLEX flow cytometry was used for detection. The EC50 of the antibody was calculated by curve fitting.

[4] = molecular target: T4, Mouse EGFR Protein, His Tag (Acro, Cat #EGR-M5224) (mouse, UniProt Q01279 25-647); assay: ELISA, coated antigen 1 ug/mL, antibody 50 nM
T4 construct: extracellular domain; Bought protein; not shown: His tag
Procedure: (§1) ELISA was used to identify the binding of VHH-IgG4 antibodies to the extracellular domains of mouse EGFR, monkey EGFR, and human EGFR proteins. The detection steps were as follows: Mouse EGFR Protein, His Tag (Acro, Cat #EGR-M5224) and Rhesus macaque EGFR Protein, His Tag (Acro, Cat #EGR-C52H1) were diluted to 1 μg/mL with phosphate buffer, and 100 μL of each dilution was added to a 96-well ELISA plate and coated overnight at 4° C. The next day, the plates were washed twice with PBST (containing 0.5% TWEEN-20) and then blocked with 3% BSA at 37° C. for 1.5 h, followed by two washes with PBST. VHH-IgG4 antibodies were diluted to 50 nM, and 100 μL of the dilution was added to each well and incubated at 37° C. for 1 h. The plates were then washed three times with PBST, and 100 μL of HRP-labeled goat anti-human IgG Fc antibody (1:10000, Bethyl) was added to each well and incubated at 37° C. for another 40 min. After washing the plates four times with PBST, 100 μL of TMB substrate was added to each well, and the reaction was allowed to proceed for 3-5 min. The reaction was stopped by adding 100 μL of 3N hydrochloric acid per well. After stopping the reaction, the optical density at 450/650 nm was measured using a Tecan microplate reader.

[5] = molecular target: T5, Rhesus macaque EGFR Protein, His Tag (Acro, Cat #EGR-C52H1) (rhesus macaque, UniProt P55245 25-645); assay: ELISA, coated antigen 1 ug/mL, antibody 50 nM
T5 construct: extracellular domain; Bought protein; also called Monkey EGFR; not shown: His tag
Procedure: as §1

[6] = molecular target: T6, EGFR-D1D2 (L25-A310, P00533-1 (uniprot)) his tag antigen (human, UniProt P00533 25-310); assay: ELISA: EGFR-D1D2 his tag antigen coated at 0.5 µg/mL, antibody at 2000, 200, 20, 2 nM, HRP goat anti-human IgG Fc, OD450
T6 construct: range 25-310; also called I+II domain protein; EGFR-D1D2 protein; not shown: His tag
Procedure: (2) Protein Binding Epitope Analysis: ELISA was used to determine the binding of VHH-IgG4 antibody to each domain of EGFR extracellular protein. Briefly, EGFR his tag protein, and EGFR-V3-his tag antigen protein were diluted to 1 μg/mL, EGFR-D1D2 (L25-A310, P00533-1 (uniprot)), and EGFR-D4 (F481-S645, P00533-1 (uniprot)) his tag antigen were diluted to 0.5 μg/mL, and each well of an ELISA plate was coated with […] antigen and incubated overnight at 4° C. The next day, the plates were washed twice with PBST (added with 0.5% TWEEN-20), then blocked with 3% BSA at 37° C. for 1.5 h, and then washed twice with PBST. Then, the antibody to be tested was diluted to 50 nM, 5 nM, 0.5 nM, 0.05 nM, and added to the wells coated with EGFR his tag protein or EGFR-V3-his tag antigen at 100 µL/well, respectively. The antibody was diluted to 2000 nM, 200 nM, 20 nM, 2 nM, and added to the wells coated with EGFR his tag protein or EGFR-V3-his tag antigen at 100 µL/well, respectively. The ELISA plates were incubated at 37° C. for 1 h. The plates were then washed three times with PBST, and then 100 μL HRP labeled Goat anti human IgG Fc antibody (1:10000, Bethyl) was added into each well, and incubated at 37° C. for another 40 min. After washing the plates four times with PBST, 100 μL of TMB substrate was added to each well, and the reaction was allowed to proceed for 3-5 min. The reaction was stopped by adding 100 μL of 3N hydrochloric acid per well. After stopping the reaction, the optical density at 450/650 nm was measured using a Tecan microplate reader.

B1: E002 VHH-IgG4 antibody (antibody, V domains shown)
VH: QVQLVESGGGLVQAGGSLRLSCAASGFTFSDYAVSWYRQAPGKEREFVARITGTGETSRYEDSVKGRFAISRDNVKNTAYLQMNSLKPEDTAVYYCSIYHPPRDYWGQGTQVTVSS
notes: VHH fused to IgG4 (VHH-IgG4), expressed in ExpiCHO, protein A purified; not shown: human IgG4 constant part from the pCDNA3.4-IgG4 vector
Q: B1 was tested. Which Kd [1] did it give?
A: 2.49 nM

Q: What about the koff [1] of the same binder?
A: 0.000121 s⁻¹

Q: And the kon [1]?
A: 48500 M⁻¹ s⁻¹

Q: And the EC50 [2]?
A: 0.095 nM

Q: What about the EC50 [3] of the same binder?
A: 2.3 nM

Q: What about the OD450 [4] of the same binder?
A: 2.73 OD450

Q: And the OD450 [5]?
A: 3.06 OD450

Q: Does B1 bind [6]?
A: no binding (tested: 2000 nM)

B2: E003 VHH-IgG4 antibody (antibody, V domains shown, not shown: a dimerising Fc or GST)
VH: QVQLVESGGGLVQPGGSLRLSCVASGGVFSSYAMGWYRQVPGKLRELVATITSGHSTTYADIVRGRFTISRDNTKNTVYLQMNRLEPDDTAVYYCNRSPYTPGNWGQGTLVTVSS
Q: Which results are given for B2?
A: Kd [1]: 4.68 nM; koff [1]: 0.000133 s⁻¹; kon [1]: 28400 M⁻¹ s⁻¹; EC50 [2]: 0.36 nM; EC50 [3]: 6.5 nM; OD450 [4]: 2.8 OD450; OD450 [5]: 3.15 OD450; binding result [6]: no binding (tested: 2000 nM)

B3: E004 VHH-IgG4 antibody (antibody, V domains shown, not shown: a dimerising Fc or GST)
VH: EVQLVESGGGLAQSGGSLRLACEASGFPFETYAMSWARQTPGNEPEWVAGIFPDGKHTAYAHSVKGRFTISRVNANNTVYLQMDSLKPEDTAVYYCAKDLPFFATPSFYIGYWGQGTLVTVSS
Q: B3 was tested. Which Kd [1] did it give?
A: 5.17 nM

Q: What about the koff [1] of the same binder?
A: 0.000776 s⁻¹

Q: What about the kon [1] of the same binder?
A: 150000 M⁻¹ s⁻¹

Q: And the EC50 [2]?
A: 0.39 nM

Q: And the OD450 [4]?
A: 3.37 OD450

Q: And the OD450 [5]?
A: 3.64 OD450

Q: Does B3 bind [6]?
A: no binding (tested: 2000 nM)

B4: E005 VHH-IgG4 antibody (antibody, V domains shown)
VH: QVQLVESGGGLVQPGGSLRLSCEASGFAFSDYTMRWHRQAAGKELELVAYITSAGDIIKYANSVRGRFTISRDNAKNTLYLQMDSLKPEDTAVYRCNALVSASVRASDYWGQGTLVTVSS
notes: as for B1
Q: B4 was tested. Which Kd [1] did it give?
A: 2.86 nM

Q: And the koff [1]?
A: 4.67e-05 s⁻¹

Q: And the kon [1]?
A: 16400 M⁻¹ s⁻¹

Q: What about the EC50 [2] of the same binder?
A: 0.98 nM

Q: What about the EC50 [3] of the same binder?
A: 9.7 nM

Q: And the OD450 [4]?
A: 3.33 OD450

Q: What about the OD450 [5] of the same binder?
A: 3.19 OD450

Q: Does B4 bind [6]?
A: no binding (tested: 2000 nM)

B5: E007 VHH-IgG4 antibody (antibody, V domains shown, not shown: a dimerising Fc or GST)
VH: EVQLVESGGGLVQPGGSLRLSCEASGFSFSDHTMRWHRQAAGKNLELVAYITPAGDIIKYADSVQGRFTISRDNAKNMLYLQMDSLRPDDTAVYRCNALVSAAVRASDYWGQGTQVTVSS
Q: For B5, which Kd [1] is on record?
A: 0.292 nM

Q: And the koff [1]?
A: 1.08e-05 s⁻¹

Q: And the kon [1]?
A: 37100 M⁻¹ s⁻¹

Q: And the EC50 [2]?
A: 0.47 nM

Q: What about the EC50 [3] of the same binder?
A: 14 nM

Q: And the OD450 [4]?
A: 3.21 OD450

Q: What about the OD450 [5] of the same binder?
A: 3.35 OD450

Q: Does B5 bind [6]?
A: no binding (tested: 2000 nM)

B6: E008 VHH-IgG4 antibody (antibody, V domains shown)
VH: EVQVVESGGGLVQSGGSLTLSCTSSGLPLLDYAIGWFRQAPGKEREAVSAISISEGSTYYTDSVRGRFTISRDNNKNKVYLRMDNLKPEDTAVYYCAADKTDIGFWLLVGGAGGGEVRYEYWGQGTQVTVSS
notes: as for B1
Q: Which results are given for B6?
A: Kd [1]: 9.62 nM; koff [1]: 0.0148 s⁻¹; kon [1]: 1.53e+06 M⁻¹ s⁻¹; EC50 [2]: 0.18 nM; EC50 [3]: 1.1 nM; OD450 [4]: 0.72 OD450; OD450 [5]: 3.68 OD450; binding result [6]: no binding (tested: 2000 nM)
